Data as given in PMC7530659, “Oxepinamide F biosynthesis involves enzymatic D-aminoacyl epimerization, 3H-oxepin formation, and hydroxylation induced double bond migration” (Nature Communications, 2020).

Assays:
[1] = test system: T1, CC[C@H](C)[C@@H]1NC(=O)[C@@H](Cc2ccccc2)n2c1nc1c(c2=O)C=CC=CO1; test: purified protein; assay type: biochemical, Aspergillus ustus; conditions: FAD; NADPH
T1 construct: recombinant N-terminally His6-tagged OpaC from cDNA, 457 amino acids, lacking residues 248 to 252 of KIA75456

[2] = substrate: CC[C@H](C)C1=C2N=C3OC=CC=C[C@]3(O)C(=O)N2[C@H](Cc2ccccc2)C(=O)N1; test: HPLC enzyme assay with purified OpaE, Michaelis-Menten kinetics (KM); D2O labeling by LC-MS; assay type: biochemical, Aspergillus ustus

Molecule OpaC (Aspergillus ustus; DEL248-252) has a Km [1] of 430 ± 40 µM.

B1: OpaE (Aspergillus ustus) (protein)
chain: MGPLRVFTDNKVKVMLLNPIGGAGFNDFVVETVLNHKDPSTHVTITSLANRIGGNQTLAYPSIRPLLYGEMIRVCLQARKENYDVLIINCFGDPMVDELQQIAGDDMVILGARQVAVQTASKISSKYAVLLPYDMKSSPDPLHQRVVADTRTAVAHPVVDMAFNDDLTPMDGESLGERLATQGKLAIKENGAEVLVLGCTAMVGCWQGLMRAVGVPVIDPTVAALRAAGKAGRLKRELVGGASTKRSGTFPTEKELKMIAESEPSYPFSGRIEI
notes: recombinant His6-tagged OpaE
B1 showed a Km [2] of 1410 ± 50 µM.
